The results in this text go back to patent publication US20230365662A1.

Several values for one entry are separate records, joined by “and”; a condition that tells them apart may be missing. Equal values may be shown once.

The assay addresses HRgpA-6H (Porphyromonas gingivalis) (UniProt P28784). Kind of assay: ELISA, Fab FASEBA supernatant on coated HRgpA-6H.
UniProt P28784, sequence (P28784 228-991 limits assumed): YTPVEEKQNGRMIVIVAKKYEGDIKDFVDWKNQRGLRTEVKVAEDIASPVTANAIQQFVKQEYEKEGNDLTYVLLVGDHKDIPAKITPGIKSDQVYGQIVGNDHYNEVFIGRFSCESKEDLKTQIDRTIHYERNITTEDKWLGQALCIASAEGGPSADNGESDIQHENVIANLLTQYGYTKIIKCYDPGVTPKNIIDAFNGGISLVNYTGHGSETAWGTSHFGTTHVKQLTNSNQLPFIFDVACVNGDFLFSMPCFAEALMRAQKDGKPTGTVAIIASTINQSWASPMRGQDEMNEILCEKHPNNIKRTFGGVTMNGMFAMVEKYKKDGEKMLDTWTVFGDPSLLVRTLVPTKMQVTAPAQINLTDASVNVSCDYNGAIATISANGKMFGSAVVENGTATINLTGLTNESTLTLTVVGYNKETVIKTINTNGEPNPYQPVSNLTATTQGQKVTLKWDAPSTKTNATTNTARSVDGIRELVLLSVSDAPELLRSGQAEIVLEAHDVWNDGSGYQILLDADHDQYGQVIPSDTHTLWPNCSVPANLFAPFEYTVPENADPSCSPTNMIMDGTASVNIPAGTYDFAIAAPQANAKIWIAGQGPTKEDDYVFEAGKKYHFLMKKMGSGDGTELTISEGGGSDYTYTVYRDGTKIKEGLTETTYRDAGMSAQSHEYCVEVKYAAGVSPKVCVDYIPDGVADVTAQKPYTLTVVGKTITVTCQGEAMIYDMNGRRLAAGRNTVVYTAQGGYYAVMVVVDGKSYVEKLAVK

B1: parental mouse (KB001) Fab FASEBA, VL variant A56V (Fab, V domains shown)
VH: EVQLKQSGPGLVAPSQSLSITCTVSGFSLSIYSVHWVRQPPGKGLEWLGMIWGGGSSDYNSALKSRLSISKDNSKSQVFLKMNSLQTDDTAMYYCARNGNFYAMDYWGQGTSVTVSS
VL: QIVLTQSPAIMSASLGERVTMTCTASSSVSSSFLHWYQQKPGSSPQLWIYSTSNLVSGVPARFSGSGSGTSYSLTISSMEAEDAATYYCHQYHHSPYIYTFGGGTKLEIK
Take B1: the OD450nm was 0.794 OD450nm and 0.795 OD450nm; the Ratio OD(Variant)/OD(WT) was 0.974 ratio to WT and 0.975 ratio to WT.

B2: parental mouse (KB001) Fab FASEBA, VL variant A56S (Fab, V domains shown)
VH: EVQLKQSGPGLVAPSQSLSITCTVSGFSLSIYSVHWVRQPPGKGLEWLGMIWGGGSSDYNSALKSRLSISKDNSKSQVFLKMNSLQTDDTAMYYCARNGNFYAMDYWGQGTSVTVSS
VL: QIVLTQSPAIMSASLGERVTMTCTASSSVSSSFLHWYQQKPGSSPQLWIYSTSNLSSGVPARFSGSGSGTSYSLTISSMEAEDAATYYCHQYHHSPYIYTFGGGTKLEIK
B2: the OD450nm is 0.772 OD450nm and 0.751 OD450nm and 0.774 OD450nm; the Ratio OD(Variant)/OD(WT) is 0.947 ratio to WT and 0.921 ratio to WT and 0.949 ratio to WT.

B3: parental mouse (KB001) Fab FASEBA, VL variant Q91E (Fab, V domains shown)
VH: EVQLKQSGPGLVAPSQSLSITCTVSGFSLSIYSVHWVRQPPGKGLEWLGMIWGGGSSDYNSALKSRLSISKDNSKSQVFLKMNSLQTDDTAMYYCARNGNFYAMDYWGQGTSVTVSS
VL: QIVLTQSPAIMSASLGERVTMTCTASSSVSSSFLHWYQQKPGSSPQLWIYSTSNLASGVPARFSGSGSGTSYSLTISSMEAEDAATYYCHEYHHSPYIYTFGGGTKLEIK
Consider B3, for which the OD450nm is 0.709 OD450nm and 0.694 OD450nm and 0.701 OD450nm; the Ratio OD(Variant)/OD(WT) is 0.823 ratio to WT and 0.806 ratio to WT and 0.814 ratio to WT.

B4: parental mouse (KB001) Fab FASEBA, VL variant Q91M (Fab, V domains shown)
VH: EVQLKQSGPGLVAPSQSLSITCTVSGFSLSIYSVHWVRQPPGKGLEWLGMIWGGGSSDYNSALKSRLSISKDNSKSQVFLKMNSLQTDDTAMYYCARNGNFYAMDYWGQGTSVTVSS
VL: QIVLTQSPAIMSASLGERVTMTCTASSSVSSSFLHWYQQKPGSSPQLWIYSTSNLASGVPARFSGSGSGTSYSLTISSMEAEDAATYYCHMYHHSPYIYTFGGGTKLEIK
B4: the OD450nm came to 0.757 OD450nm and the Ratio OD(Variant)/OD(WT) is 0.879 ratio to WT.

B5: parental mouse (KB001) Fab FASEBA, VL variant H90W (Fab, V domains shown)
VH: EVQLKQSGPGLVAPSQSLSITCTVSGFSLSIYSVHWVRQPPGKGLEWLGMIWGGGSSDYNSALKSRLSISKDNSKSQVFLKMNSLQTDDTAMYYCARNGNFYAMDYWGQGTSVTVSS
VL: QIVLTQSPAIMSASLGERVTMTCTASSSVSSSFLHWYQQKPGSSPQLWIYSTSNLASGVPARFSGSGSGTSYSLTISSMEAEDAATYYCWQYHHSPYIYTFGGGTKLEIK
In the case of B5, the OD450nm stood at 0.763 OD450nm and the Ratio OD(Variant)/OD(WT) was 0.886 ratio to WT.

B6: parental mouse (KB001) Fab FASEBA, VL variant S57L (Fab, V domains shown)
VH: EVQLKQSGPGLVAPSQSLSITCTVSGFSLSIYSVHWVRQPPGKGLEWLGMIWGGGSSDYNSALKSRLSISKDNSKSQVFLKMNSLQTDDTAMYYCARNGNFYAMDYWGQGTSVTVSS
VL: QIVLTQSPAIMSASLGERVTMTCTASSSVSSSFLHWYQQKPGSSPQLWIYSTSNLALGVPARFSGSGSGTSYSLTISSMEAEDAATYYCHQYHHSPYIYTFGGGTKLEIK
As to B6, the OD450nm turned out to be 0.781 OD450nm and the Ratio OD(Variant)/OD(WT) was 0.958 ratio to WT.

B7: parental mouse (KB001) Fab FASEBA, VL variant S57N (Fab, V domains shown)
VH: EVQLKQSGPGLVAPSQSLSITCTVSGFSLSIYSVHWVRQPPGKGLEWLGMIWGGGSSDYNSALKSRLSISKDNSKSQVFLKMNSLQTDDTAMYYCARNGNFYAMDYWGQGTSVTVSS
VL: QIVLTQSPAIMSASLGERVTMTCTASSSVSSSFLHWYQQKPGSSPQLWIYSTSNLANGVPARFSGSGSGTSYSLTISSMEAEDAATYYCHQYHHSPYIYTFGGGTKLEIK
Consider B7, for which the OD450nm amounted to 0.813 OD450nm and the Ratio OD(Variant)/OD(WT) is 0.997 ratio to WT.

B8: parental mouse (KB001) Fab FASEBA, VL variant S57F (Fab, V domains shown)
VH: EVQLKQSGPGLVAPSQSLSITCTVSGFSLSIYSVHWVRQPPGKGLEWLGMIWGGGSSDYNSALKSRLSISKDNSKSQVFLKMNSLQTDDTAMYYCARNGNFYAMDYWGQGTSVTVSS
VL: QIVLTQSPAIMSASLGERVTMTCTASSSVSSSFLHWYQQKPGSSPQLWIYSTSNLAFGVPARFSGSGSGTSYSLTISSMEAEDAATYYCHQYHHSPYIYTFGGGTKLEIK
Turning to B8, the OD450nm was 0.785 OD450nm and 0.787 OD450nm and 0.797 OD450nm; the Ratio OD(Variant)/OD(WT) is 0.963 ratio to WT and 0.965 ratio to WT and 0.977 ratio to WT.

B9: parental mouse (KB001) Fab FASEBA, VL variant S57K (Fab, V domains shown)
VH: EVQLKQSGPGLVAPSQSLSITCTVSGFSLSIYSVHWVRQPPGKGLEWLGMIWGGGSSDYNSALKSRLSISKDNSKSQVFLKMNSLQTDDTAMYYCARNGNFYAMDYWGQGTSVTVSS
VL: QIVLTQSPAIMSASLGERVTMTCTASSSVSSSFLHWYQQKPGSSPQLWIYSTSNLAKGVPARFSGSGSGTSYSLTISSMEAEDAATYYCHQYHHSPYIYTFGGGTKLEIK
Take B9: the OD450nm is 0.712 OD450nm and the Ratio OD(Variant)/OD(WT) was 0.873 ratio to WT.

B10: parental mouse (KB001) Fab FASEBA, VL variant A56P (Fab, V domains shown)
VH: EVQLKQSGPGLVAPSQSLSITCTVSGFSLSIYSVHWVRQPPGKGLEWLGMIWGGGSSDYNSALKSRLSISKDNSKSQVFLKMNSLQTDDTAMYYCARNGNFYAMDYWGQGTSVTVSS
VL: QIVLTQSPAIMSASLGERVTMTCTASSSVSSSFLHWYQQKPGSSPQLWIYSTSNLPSGVPARFSGSGSGTSYSLTISSMEAEDAATYYCHQYHHSPYIYTFGGGTKLEIK
With B10, the OD450nm was found to be 0.748 OD450nm and the Ratio OD(Variant)/OD(WT) is 0.917 ratio to WT.

B11: parental mouse (KB001) Fab FASEBA, VL variant S57M (Fab, V domains shown)
VH: EVQLKQSGPGLVAPSQSLSITCTVSGFSLSIYSVHWVRQPPGKGLEWLGMIWGGGSSDYNSALKSRLSISKDNSKSQVFLKMNSLQTDDTAMYYCARNGNFYAMDYWGQGTSVTVSS
VL: QIVLTQSPAIMSASLGERVTMTCTASSSVSSSFLHWYQQKPGSSPQLWIYSTSNLAMGVPARFSGSGSGTSYSLTISSMEAEDAATYYCHQYHHSPYIYTFGGGTKLEIK
With B11, the OD450nm was 0.745 OD450nm and the Ratio OD(Variant)/OD(WT) was 0.914 ratio to WT.

B12: parental mouse (KB001) Fab FASEBA, VL variant S57W (Fab, V domains shown)
VH: EVQLKQSGPGLVAPSQSLSITCTVSGFSLSIYSVHWVRQPPGKGLEWLGMIWGGGSSDYNSALKSRLSISKDNSKSQVFLKMNSLQTDDTAMYYCARNGNFYAMDYWGQGTSVTVSS
VL: QIVLTQSPAIMSASLGERVTMTCTASSSVSSSFLHWYQQKPGSSPQLWIYSTSNLAWGVPARFSGSGSGTSYSLTISSMEAEDAATYYCHQYHHSPYIYTFGGGTKLEIK
In the case of B12, the OD450nm was determined as 0.784 OD450nm and the Ratio OD(Variant)/OD(WT) is 0.961 ratio to WT.

B13: parental mouse (KB001) Fab FASEBA, VL variant S57I (Fab, V domains shown)
VH: EVQLKQSGPGLVAPSQSLSITCTVSGFSLSIYSVHWVRQPPGKGLEWLGMIWGGGSSDYNSALKSRLSISKDNSKSQVFLKMNSLQTDDTAMYYCARNGNFYAMDYWGQGTSVTVSS
VL: QIVLTQSPAIMSASLGERVTMTCTASSSVSSSFLHWYQQKPGSSPQLWIYSTSNLAIGVPARFSGSGSGTSYSLTISSMEAEDAATYYCHQYHHSPYIYTFGGGTKLEIK
Consider B13, for which the OD450nm was 0.791 OD450nm and the Ratio OD(Variant)/OD(WT) was 0.97 ratio to WT.

B14: parental mouse (KB001) Fab FASEBA, VL variant S57Q (Fab, V domains shown)
VH: EVQLKQSGPGLVAPSQSLSITCTVSGFSLSIYSVHWVRQPPGKGLEWLGMIWGGGSSDYNSALKSRLSISKDNSKSQVFLKMNSLQTDDTAMYYCARNGNFYAMDYWGQGTSVTVSS
VL: QIVLTQSPAIMSASLGERVTMTCTASSSVSSSFLHWYQQKPGSSPQLWIYSTSNLAQGVPARFSGSGSGTSYSLTISSMEAEDAATYYCHQYHHSPYIYTFGGGTKLEIK
For the molecule B14, the OD450nm was 0.658 OD450nm and the Ratio OD(Variant)/OD(WT) is 0.807 ratio to WT.

B15: parental mouse (KB001) Fab FASEBA, VL variant A56M (Fab, V domains shown)
VH: EVQLKQSGPGLVAPSQSLSITCTVSGFSLSIYSVHWVRQPPGKGLEWLGMIWGGGSSDYNSALKSRLSISKDNSKSQVFLKMNSLQTDDTAMYYCARNGNFYAMDYWGQGTSVTVSS
VL: QIVLTQSPAIMSASLGERVTMTCTASSSVSSSFLHWYQQKPGSSPQLWIYSTSNLMSGVPARFSGSGSGTSYSLTISSMEAEDAATYYCHQYHHSPYIYTFGGGTKLEIK
As to B15, the OD450nm is 0.802 OD450nm and 0.701 OD450nm; the Ratio OD(Variant)/OD(WT) is 0.983 ratio to WT and 0.86 ratio to WT.

B16: parental mouse (KB001) Fab FASEBA, VL variant H90L (Fab, V domains shown)
VH: EVQLKQSGPGLVAPSQSLSITCTVSGFSLSIYSVHWVRQPPGKGLEWLGMIWGGGSSDYNSALKSRLSISKDNSKSQVFLKMNSLQTDDTAMYYCARNGNFYAMDYWGQGTSVTVSS
VL: QIVLTQSPAIMSASLGERVTMTCTASSSVSSSFLHWYQQKPGSSPQLWIYSTSNLASGVPARFSGSGSGTSYSLTISSMEAEDAATYYCLQYHHSPYIYTFGGGTKLEIK
Regarding B16, the OD450nm is 0.785 OD450nm and 0.694 OD450nm; the Ratio OD(Variant)/OD(WT) is 0.911 ratio to WT and 0.806 ratio to WT.

B17: parental mouse (KB001) Fab FASEBA, VL variant S57E (Fab, V domains shown)
VH: EVQLKQSGPGLVAPSQSLSITCTVSGFSLSIYSVHWVRQPPGKGLEWLGMIWGGGSSDYNSALKSRLSISKDNSKSQVFLKMNSLQTDDTAMYYCARNGNFYAMDYWGQGTSVTVSS
VL: QIVLTQSPAIMSASLGERVTMTCTASSSVSSSFLHWYQQKPGSSPQLWIYSTSNLAEGVPARFSGSGSGTSYSLTISSMEAEDAATYYCHQYHHSPYIYTFGGGTKLEIK
As for B17, the OD450nm amounted to 0.751 OD450nm and the Ratio OD(Variant)/OD(WT) is 0.921 ratio to WT.

B18: parental mouse (KB001) Fab FASEBA, VL variant S57R (Fab, V domains shown)
VH: EVQLKQSGPGLVAPSQSLSITCTVSGFSLSIYSVHWVRQPPGKGLEWLGMIWGGGSSDYNSALKSRLSISKDNSKSQVFLKMNSLQTDDTAMYYCARNGNFYAMDYWGQGTSVTVSS
VL: QIVLTQSPAIMSASLGERVTMTCTASSSVSSSFLHWYQQKPGSSPQLWIYSTSNLARGVPARFSGSGSGTSYSLTISSMEAEDAATYYCHQYHHSPYIYTFGGGTKLEIK
As to B18, the OD450nm is 0.746 OD450nm and the Ratio OD(Variant)/OD(WT) is 0.915 ratio to WT.

B19: parental mouse (KB001) Fab FASEBA, VL variant S57A (Fab, V domains shown)
VH: EVQLKQSGPGLVAPSQSLSITCTVSGFSLSIYSVHWVRQPPGKGLEWLGMIWGGGSSDYNSALKSRLSISKDNSKSQVFLKMNSLQTDDTAMYYCARNGNFYAMDYWGQGTSVTVSS
VL: QIVLTQSPAIMSASLGERVTMTCTASSSVSSSFLHWYQQKPGSSPQLWIYSTSNLAAGVPARFSGSGSGTSYSLTISSMEAEDAATYYCHQYHHSPYIYTFGGGTKLEIK
As for B19, the OD450nm was determined as 0.806 OD450nm and the Ratio OD(Variant)/OD(WT) is 0.988 ratio to WT.
